Columns and labels:
[1] = target: SARS-CoV-2 RBD, truncated version (residues 333 to 529) used for crystallization (SARS-CoV-2, UniProt P0DTC2); test: crystal structure; details: both partners purified
[2] = target: SARS-CoV-2 RBD, truncated version (residues 333 to 529) (SARS-CoV-2, UniProt P0DTC2); test: crystal structure; details: both partners purified

| Binder | binding result [1] | binding result [2] |
| --- | --- | --- |
| COVA1-16 Fab (Fab, V domains shown) VH: QVQLVQSGAEVKKPGASVKVSCKASGYTFTSYYMHWVRQAPGQGLEWMGIINSSGGSTSYAQKFQGRVTMTRDTSTSTVYMELSSLRSEDTAVYYCARPPRNYYDRSGYYQRAEYFQHWGQGTLVTVSS VL: DIQLTQSPSSLSASVGDRVTITCQASQDISNYLNWYQQRPGKAPKLLIYDASNLETGVPSRFSGSGSGTDFTFTISSLQPEDIATYYCQQYDNPPLTFGGGTKLEIK [COVA1-16 Fab, listing 1 of 2 here] | binds | – |
| COVA1-16 Fab (Fab, V domains shown) VH: QVQLVQSGAEVKKPGASVKVSCKASGYTFTSYYMHWVRQAPGQGLEWMGIINSSGGSTSYAQKFQGRVTMTRDTSTSTVYMELSSLRSEDTAVYYCARPPRNYYDRSGYYQRAEYFQHWGQGTLVTVSS VL: DIQLTQSPSSLSASVGDRVTITCQASQDISNYLNWYQQRPGKAPKLLIYDASNLETGVPSRFSGSGSGTDFTFTISSLQPEDIATYYCQQYDNPPLTFGGGTKLEIK [COVA1-16 Fab, listing 2 of 2 here] | – | binds |

Source: paper PMC8651051 (Science Translational Medicine, 2021)
